Patent US20030119725A1 (ACTIVE MOTIF, published 2003)
*1 amine or outer side, *2 acyl side, *3 side chain or, on linkers, in order; H or OH if unused. Cysteamide = C(CS[*:3])N[*:1]

Experiments:
[1] = target: T1, Pep-A, 32-mer peptide derived from HIV-1 reverse transcriptase; assay: intrinsic Trp fluorescence of Pep-2 on binding
T1 construct: also called peptide A

[2] = target: T2, Pep-B, 51-mer peptide derived from human Cdc25C dual-specificity phosphatase; assay: intrinsic Trp fluorescence of Pep-2 on binding
T2 construct: also called peptide B

[3] = target: T3, 119 kDa b-galactosidase (β-gal) (UniProt P00722 2-1024 = β-galactosidase); assay: intrinsic Trp fluorescence of Pep-2 on binding
T3 construct: also called beta-gal; β-galactosidase

[4] = target: T1, Pep-A, 32-mer peptide derived from …; assay: intrinsic Trp fluorescence titration of 1 µM Pep-2
[5] = target: T2, Pep-B, 51-mer peptide derived from …; assay: intrinsic Trp fluorescence titration of 1 µM Pep-2
[6] = target: T3, 119 kDa b-galactosidase (β-gal); assay: intrinsic Trp fluorescence titration of 1 µM Pep-2
[7] = target: the molecule itself; assay: intrinsic tryptophan fluorescence against peptide concentration

T3 sequence (P00722 2-1024 limits assumed): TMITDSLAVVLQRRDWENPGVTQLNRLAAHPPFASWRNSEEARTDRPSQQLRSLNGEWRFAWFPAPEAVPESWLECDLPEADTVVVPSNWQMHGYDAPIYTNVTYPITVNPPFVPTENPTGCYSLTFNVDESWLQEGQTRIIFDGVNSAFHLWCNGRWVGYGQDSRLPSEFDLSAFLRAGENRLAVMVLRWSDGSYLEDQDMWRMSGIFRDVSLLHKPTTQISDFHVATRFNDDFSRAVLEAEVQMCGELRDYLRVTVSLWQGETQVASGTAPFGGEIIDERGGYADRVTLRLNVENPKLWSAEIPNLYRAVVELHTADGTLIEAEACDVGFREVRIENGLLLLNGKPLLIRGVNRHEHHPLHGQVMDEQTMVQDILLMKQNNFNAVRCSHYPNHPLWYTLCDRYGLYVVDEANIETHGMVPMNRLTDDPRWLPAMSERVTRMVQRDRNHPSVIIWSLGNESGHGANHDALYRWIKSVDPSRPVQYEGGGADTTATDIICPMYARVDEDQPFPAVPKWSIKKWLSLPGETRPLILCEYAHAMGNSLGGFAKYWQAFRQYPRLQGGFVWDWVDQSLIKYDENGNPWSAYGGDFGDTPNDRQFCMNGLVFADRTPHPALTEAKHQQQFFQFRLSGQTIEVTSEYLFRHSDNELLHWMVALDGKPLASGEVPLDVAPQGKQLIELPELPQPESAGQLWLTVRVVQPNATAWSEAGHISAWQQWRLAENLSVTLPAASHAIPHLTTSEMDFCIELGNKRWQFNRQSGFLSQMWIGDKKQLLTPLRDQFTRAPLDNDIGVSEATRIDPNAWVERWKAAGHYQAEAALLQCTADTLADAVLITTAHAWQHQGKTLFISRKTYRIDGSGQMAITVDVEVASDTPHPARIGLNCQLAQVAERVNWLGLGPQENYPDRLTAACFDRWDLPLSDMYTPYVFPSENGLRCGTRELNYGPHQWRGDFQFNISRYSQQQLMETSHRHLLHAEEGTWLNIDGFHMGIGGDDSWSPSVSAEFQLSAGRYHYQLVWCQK

Binder | blue shift of the fluorescence emission maximum [1] [nm] | blue shift of the fluorescence emission maximum [2] [nm] | blue shift of the fluorescence emission maximum [3] [nm] | Kd [4] [nM] | concentration of partner at saturation [4] [nM] | saturating quenching of intrinsic tryptophan fluorescence [4] [%] | Kd [5] [nM] | concentration of partner at saturation [5] [nM] | saturating quenching of intrinsic tryptophan fluorescence [5] [%] | Kd [6] [nM] | concentration of partner at saturation [6] [nM] | saturating quenching of intrinsic tryptophan fluorescence [6] [%] | binding result [7]
Ac-KETWWETWWTEWSQPKKKRKV-Cysteamide (Synthetic 21-residue peptide: Trp-rich hydrophobic domain, Ser-Gln-Pro spacer, and a Lys-rich domain derived from the SV40 large T antigen NLS; also called Pep-2-cya; peptide vector) [Pep-2 (KETWWETWWTEWSQPKKKRKV-cya)] | 10 | 10 | 10 | ~120 | ~200 | 36 | ~120 | ~200 | 36 | ~120 | ~50 | 65 | no binding (tested: up to a millimolar concentration)
GALFLGFLGAAGSTMGAWSQPKSKRKV [MPG peptide vector] |  |  |  |  |  |  |  |  |  |  |  |  | no binding
